Experimental data: the supplement of paper PMC9170038

Tested on: MS2 coat protein
Test: apparent KD of MS2 coat protein; designed switch direction (-1 OFF switch, 1 ON switch): -1; higher = weaker reporter binding
Method in brief: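 Apparent KD, taken as the median over clusters for each design, was obtained by curve-fitting normalised cluster fluorescence. Designed RNA switches had been transcribed on Illumina chips by stalled E. coli RNA polymerase and titrated with SNAP-549-labelled MS2 coat protein, doubling from 0.7 or 1.5 nM to 3 µM.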

[1] = Eterna round: R95, input ligand: microRNA oligo, concentration not stated
[2] = Eterna round: R95, input ligand: FMN 200 uM
[3] = Eterna round: R95, input ligand: none
[4] = input ligand: microRNA oligo, concentration not stated

Row | Sequence | apparent KD of MS2 coat protein (input ligand: FMN 200 uM) [nM] | apparent KD of MS2 coat protein (input ligand: none) [nM] | apparent KD of MS2 coat protein [1] [nM] | also measured
1 | ACAUUACAUGAGGAUCACCCAUGUGAGGAUAUGGAGCGAGAGUGUCCUGUCGCGUACACCAGAAGGCGCGGGUG [1st #50] (Eterna round: R97, puzzle: Exclusion 1) | 235 | 80.1 |  | 
2 | ACAUUGUGAGGAUAUCCGAAGAAGGUCCGGAAGGUUCGGGUGGAGAAGGCACAUGAGGAUCACCCAUGUGUGGG [Excls4-VIII] (puzzle: Exclusion 4) |  |  | 39.3 | 
3 | ACCAAGUCAGGAUAUCCAGUUAGCCUUCGAGGCUGGGAAUAGGAGAAGGGACAUGAGGAUCACCCAUGUGGGCC [Eternabot (L2) Solution 78] (Eterna round: R97, puzzle: Exclusion 4) | 215 | 54.4 |  | 
4 | ACCAUGUUAGGAUAUGCGUGGCAUAGACCGGUCUAUCCGCGGUAGAAGGGACAUGAGGAUCACCCAUGUGCGAG [Eternabot (L2) Solution 85] (Eterna round: R97, puzzle: Exclusion 4) | 41.5 | 32.3 |  | 
5 | ACCCAACAUGAGGAUCACCCAUGUCAGGAUAUCCAAGCGAAAGCAAAAGCGAAAGCAAGGAGAAGGGACAGAGG [ChP 04-04-2015 #6] (puzzle: Exclusion 1) |  |  | 90 | apparent KD of MS2 coat protein [2]: 308 nM; apparent KD of MS2 coat protein [3]: 180 nM
6 | ACCCAACAUGAGGAUCACCCAUGUCAGGAUAUCCUCGGGAAACCAAAAGAGGAGCCGAGGAGAAGGGACAGAGG [ChP 04-04-2015 #5] (puzzle: Exclusion 1) |  |  | 233 | apparent KD of MS2 coat protein [2]: 124 nM; apparent KD of MS2 coat protein [3]: 227 nM
7 | ACCCUAAUCGUGAGGAUAUACUGCGUCAAAGACGGGUAGAAGGUACAUGAGGAUCACCCAUGUUUGGCUACUAA [Eternabot (L2) Solution 48] (Eterna round: R97, puzzle: Brourd's mod of Exclusion 4) | 28.3 | 27.7 |  | 
8 | ACCCUCCCGCAGGAUAUAAUAAAGUGGUACUUAUUAGAAGGGCGUACAUGAGGAUCACCCAUGUCGUGACGUGC [Eternabot (L1) Solution 5] (Eterna round: R97, puzzle: Exclusion 6) | 25.5 | 25.9 |  | 
9 | ACCGAACAUGAGGAUCACCCAUGUGAGGAUAUCCCGAGAUUAAAUGCCGCAAGAAGGCGGAGAAGGCGCAUGGG [Ditiesre] (puzzle: Exclusion 1) |  |  | 23.7 | apparent KD of MS2 coat protein [2]: 45.2 nM; apparent KD of MS2 coat protein [3]: 31.3 nM
10 | ACCUACCAGCUAGGAUAUGCAGUACAGUAAAAUGUAGAAGGAGCACGAUCCAGACAUGAGGAUCACCCAUGUGGGCGGUAGGCA [Errage] (Eterna round: R96, puzzle: Exclusion NG 1) | 14.4 | 16.9 |  | apparent KD of MS2 coat protein [4]: 14 nM
11 | ACCUCACAUGAGGAUCACCCAUGUCAGGAUAUACAAACCGUGUAAAGACACGGUCGUAGUAGAAGGGACUAUGG [Telalebees] (puzzle: Exclusion 1) |  |  | 59.1 | 
12 | ACCUCACAUGAGGAUCACCCAUGUCAGGAUAUACAAGAAAAUAACCGGAAAGACCGGAGUAGAAGGGACAUAAG [Arisus] (puzzle: Exclusion 1) |  |  | 16.2 | apparent KD of MS2 coat protein [2]: 30.3 nM; apparent KD of MS2 coat protein [3]: 17.1 nM
13 | ACCUCACAUGAGGAUCACCCAUGUCAGGAUAUCUUUUAAAACGCGAAUCGCGUCGCUGAGAGAAGGGACAUUAA [EX1 #21] (Eterna round: R97, puzzle: Exclusion 1) | 99.6 | 39.1 |  | 
14 | ACCUCACAUGAGGAUCACCCAUGUCAGGAUAUGUACCUAGCCAAAACAAAGGCCAGAAGCAGAAGGGACUGCGG [Ralerezara] (puzzle: Exclusion 1) |  |  | 53.4 | apparent KD of MS2 coat protein [2]: 24.1 nM; apparent KD of MS2 coat protein [3]: 44.6 nM
15 | ACCUCACAUGAGGAUCACCCAUGUUAGGAUAUCUCGACACUCCGCGGGCGGUAGCGUCAGAGAAGGAACGUGCU [Iszaxeza] (puzzle: Exclusion 1) |  |  | 23.1 | 
16 | ACCUCACAUGAGGAUCACCCAUGUUAGGAUAUCUCGGCGCCCUGUAGGCAGUAGCGCCAGAGAAGGAACGUGCA [Gearorso] (puzzle: Exclusion 1) |  |  | 19.8 | 
17 | ACCUCACUUGAGGAUCACCCAAGUCAGGAUAUACUCGUUUGCCGCACGACGCGGCAUUGUAGAAGGGACGGGUU [Arveatat] (Eterna round: R97, puzzle: Exclusion 1) | 35.1 | 17.9 |  | 
18 | ACCUCUGCUGAGGAUAUCCUUGCGGAAGAAGGAGGAGAAGGCAGAACAUGAGGAUCACCCAUGUGGGAACAACG [Eternabot (Original) Solution 37] (Eterna round: R97, puzzle: Exclusion 6) | 182 | 83.8 |  | 

Row | Sequence | apparent KD of MS2 coat protein (input ligand: FMN 200 uM) [nM] | apparent KD of MS2 coat protein (input ligand: none) [nM] | apparent KD of MS2 coat protein [1] [nM] | also measured
19 | ACCUUACAUGAGGAUCACCCAUGUCAGGAUAUCUCGGGCGGCUGAGGACCAGCCACCCAGAGAAGGGACGAGGA [Qumaraanan] (puzzle: Exclusion 1) |  |  | 11.9 | apparent KD of MS2 coat protein [2]: 15 nM; apparent KD of MS2 coat protein [3]: 15.7 nM
20 | ACCUUACAUGAGGAUCACCCAUGUCAGGAUAUCUCGGGCGGCUGAGGACCAGCCGCCCAGAGAAGGGACGAGGA [Leleusarra] (puzzle: Exclusion 1) |  |  | 12.5 | 
21 | ACGAUGACCGAAAAGUGUCAACUGACAUGAGGAUCACCCAUGUAGGAUAUGGCUACGAAAAGUAGUCAGAAGGACAUGUCAUCA [Omei Exc(NG) 3 Av6] (Eterna round: R96, puzzle: Exclusion NG 3) | 17.6 | 15.4 |  | apparent KD of MS2 coat protein [4]: 10.5 nM
22 | ACGCAUUGCCAAAGGUAAUGCGUUACAUGAGGAUCACCCAUGUAGGAUAUGGUAGGCAAAGCUUACCAGAAGGACAUGAUAAUU [Mat - Exclusion NG 3 - Mod of JL - D7] (Eterna round: R96, puzzle: Exclusion NG 3) | 219 | 57 |  | apparent KD of MS2 coat protein [4]: 40 nM
23 | ACGCGUGAAGGAUAUACGCGGGCCCAAGCGGAUCACACCGCACAUGAGGAUCACCCAUGUAGAAGGUCGCAAAA [r4x2dt3] (Eterna round: R97, puzzle: Exclusion 2) | 33.4 | 13.9 |  | 
24 | ACGCUGUGAGGAUAUACAUGAGGAUCACCCAUGUUAAGGAAGUCUUGGUUAAUUUGGAGUAGAAGGCGCUUAUU [JR_Ex3_Sub016] (Eterna round: R97, puzzle: Exclusion 3) | 31.5 | 34.9 |  | 
25 | ACGUUUUUUGAGGAUAUGCGAUAGUUUUAUAUCGUAGAAGGCGAUACAUGAGGAUCACCCAUGUUUAUGGGCAU [LRO-Ex6-20] (puzzle: Exclusion 6) |  |  | 155 | 
26 | ACUAAUUGAGGAUAUACAUUGAUUUACAUGAGGAUCACCCAUGUUCAAACAUGUAUUUAUGUAGAAGGCAGAAGAA [JR_Ex5_Sub065] (Eterna round: R97, puzzle: Exclusion 5) | 23 | 17.5 |  | 
27 | ACUAGAUGAGGAUAUGCAUAUUUUCGUGUUCUUCUAGGUUAACAUGAGGAUCACCCAUGUAGAAGGCGUCUAUA [Exclusion 2 - 22] (puzzle: Exclusion 2) |  |  | 21.3 | 
28 | ACUAGCUUUUUGCAUAUUAGGUUUGUUGCUUCGUAUGUAACAUGAGGAUCACCCAUGUAUUACUGAUGUCGUCGUUU [JR_SV3TOV2_Sub091] (puzzle: Sensor v3, turn-off variant 2) |  |  | 17.3 | apparent KD of MS2 coat protein [2]: 20 nM; apparent KD of MS2 coat protein [3]: 16.9 nM
29 | ACUAGGCGAGGAUAUACAUGCUUAACACAGCGAAAGCUGUGACAUGAGGAUCACCCAUGUAGAAGGCGCAAAUA [Enlaedondi] (puzzle: Exclusion 2) |  |  | 43.2 | 
30 | ACUCAAUAGUAGGAUAUCAUCAAACUAUUGUGAUGAGAAGGACUAACAUGAGGAUCACCCAUGUUAACGUGAAG [Mod of Brourd 4 - Jieux - Exclusion 6] (Eterna round: R97, puzzle: Exclusion 6) | 23 | 20.3 |  | 
31 | ACUCCCAUCGUGAGGAUAUUGAAGCGGGAAGCCGGCAAGAAGGUACAUGAGGAUCACCCAUGUGUGAACAGGAC [Eternabot (L1) Solution 48] (Eterna round: R97, puzzle: Brourd's mod of Exclusion 4) | 14.5 | 14.9 |  | 
32 | ACUCGAGAAGGAUAUACAUGAGGAUCACCCAUGUUAACUCCCAAGGGCAUCUUAAAAGGUAGAAGGUCUUGAAA [Laonbeus] (puzzle: Exclusion 3) |  |  | 14 | apparent KD of MS2 coat protein [2]: 23.7 nM; apparent KD of MS2 coat protein [3]: 14.1 nM
33 | ACUCUACAUGAGGAUCACCCAUGUGAGGAUAUCAAAGCCAGAGCGGAUCUCUGGUCCAUGAGAAGGUGCAUGGU [ElNandoxlusion 3 - Jieux - Exclusion 1] (Eterna round: R97, puzzle: Exclusion 1) | 73.4 | 22.3 |  | 
34 | ACUUACUGAGGAUAUACAUAGAUUUACAUGAGGAUCACCCAUGUUCCUCUAAGUAUAUAUGUAGAAGGCAGAAGAU [Mat - Exclusion 5 - JL Mod - D39] (Eterna round: R97, puzzle: Exclusion 5) | 202 | 116 |  | 
35 | ACUUACUGAGGAUAUACAUAGAUUUACAUGAGGAUCACCCAUGUUCCUCUAAGUAUAUAUGUAGAAGGCAGAAGGG [Mat - Exclusion 5 - JL Mod - D41] (Eterna round: R97, puzzle: Exclusion 5) | 55.6 | 166 |  | 
36 | ACUUAUAGAGGAUAUACAGAUUAUUACAUGAGGAUCACCCAUGUUCUUCAAUGUAUAUAUGUAGAAGGCUAAGGAA [JL-ex5-4.23 Malcolm mod] (Eterna round: R97, puzzle: Exclusion 5) | 381 | 82.2 |  | 
